Patent EP1516629B1

T1: human CD11a (human) (UniProt P20701)
T1 sequence (looked up): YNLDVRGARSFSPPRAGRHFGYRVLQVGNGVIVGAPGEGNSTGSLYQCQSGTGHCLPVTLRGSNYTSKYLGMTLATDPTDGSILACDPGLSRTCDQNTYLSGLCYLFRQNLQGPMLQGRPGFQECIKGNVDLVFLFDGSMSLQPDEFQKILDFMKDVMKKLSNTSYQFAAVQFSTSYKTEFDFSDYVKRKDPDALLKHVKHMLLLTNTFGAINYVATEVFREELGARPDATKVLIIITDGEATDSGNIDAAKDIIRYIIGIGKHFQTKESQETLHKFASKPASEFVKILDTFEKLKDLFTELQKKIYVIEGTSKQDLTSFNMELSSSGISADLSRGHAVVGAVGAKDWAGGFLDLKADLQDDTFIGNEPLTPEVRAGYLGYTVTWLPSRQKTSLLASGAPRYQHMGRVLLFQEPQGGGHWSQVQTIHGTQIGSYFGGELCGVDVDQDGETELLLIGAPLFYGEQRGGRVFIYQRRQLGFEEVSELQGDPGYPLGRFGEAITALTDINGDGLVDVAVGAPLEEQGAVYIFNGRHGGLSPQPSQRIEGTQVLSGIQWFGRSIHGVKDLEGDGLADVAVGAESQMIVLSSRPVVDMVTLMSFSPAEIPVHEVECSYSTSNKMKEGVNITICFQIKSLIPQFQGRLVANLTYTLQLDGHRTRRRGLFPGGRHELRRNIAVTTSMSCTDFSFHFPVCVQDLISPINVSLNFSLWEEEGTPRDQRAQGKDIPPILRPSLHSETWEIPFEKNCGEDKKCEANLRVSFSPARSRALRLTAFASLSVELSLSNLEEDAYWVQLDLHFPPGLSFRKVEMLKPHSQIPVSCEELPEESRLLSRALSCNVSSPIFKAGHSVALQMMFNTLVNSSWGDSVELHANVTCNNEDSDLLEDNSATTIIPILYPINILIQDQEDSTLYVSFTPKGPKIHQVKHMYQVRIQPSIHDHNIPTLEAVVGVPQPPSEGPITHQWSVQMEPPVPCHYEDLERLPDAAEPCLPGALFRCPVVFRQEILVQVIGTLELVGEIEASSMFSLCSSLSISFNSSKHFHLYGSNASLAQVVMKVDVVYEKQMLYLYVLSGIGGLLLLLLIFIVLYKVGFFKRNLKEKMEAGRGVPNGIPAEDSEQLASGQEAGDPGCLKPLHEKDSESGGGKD

T2: rhesus CD11a (rhesus) (UniProt H9Z8N3)
T2 sequence: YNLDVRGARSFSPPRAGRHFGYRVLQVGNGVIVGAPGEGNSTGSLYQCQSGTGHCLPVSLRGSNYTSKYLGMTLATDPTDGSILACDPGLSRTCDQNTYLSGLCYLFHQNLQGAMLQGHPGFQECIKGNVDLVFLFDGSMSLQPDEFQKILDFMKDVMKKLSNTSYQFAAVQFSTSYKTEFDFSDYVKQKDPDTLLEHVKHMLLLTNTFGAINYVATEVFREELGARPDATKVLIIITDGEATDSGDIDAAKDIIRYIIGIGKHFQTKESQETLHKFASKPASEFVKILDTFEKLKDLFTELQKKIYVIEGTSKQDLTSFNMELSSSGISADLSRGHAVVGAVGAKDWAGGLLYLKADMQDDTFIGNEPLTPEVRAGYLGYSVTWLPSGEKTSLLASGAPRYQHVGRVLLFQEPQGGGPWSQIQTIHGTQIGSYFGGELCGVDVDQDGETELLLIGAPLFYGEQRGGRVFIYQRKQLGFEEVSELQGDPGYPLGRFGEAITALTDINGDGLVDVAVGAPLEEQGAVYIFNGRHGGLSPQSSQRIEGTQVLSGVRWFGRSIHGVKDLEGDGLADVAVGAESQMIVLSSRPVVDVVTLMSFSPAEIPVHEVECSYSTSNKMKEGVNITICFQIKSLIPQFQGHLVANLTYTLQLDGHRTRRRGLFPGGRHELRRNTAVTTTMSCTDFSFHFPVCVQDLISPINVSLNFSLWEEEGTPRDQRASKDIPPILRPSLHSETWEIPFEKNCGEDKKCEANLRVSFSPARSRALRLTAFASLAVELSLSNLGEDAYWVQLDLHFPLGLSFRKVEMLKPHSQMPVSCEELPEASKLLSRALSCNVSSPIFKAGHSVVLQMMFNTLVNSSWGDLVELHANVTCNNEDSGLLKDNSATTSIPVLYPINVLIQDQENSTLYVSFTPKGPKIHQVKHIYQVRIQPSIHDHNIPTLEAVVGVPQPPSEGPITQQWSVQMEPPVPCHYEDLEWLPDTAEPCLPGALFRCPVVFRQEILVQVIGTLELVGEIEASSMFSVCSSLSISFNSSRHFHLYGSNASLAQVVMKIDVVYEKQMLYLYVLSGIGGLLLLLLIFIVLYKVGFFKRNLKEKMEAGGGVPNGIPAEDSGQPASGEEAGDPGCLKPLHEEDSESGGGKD


Columns and labels:
[1] = target: T1, human CD11a (human); experiment: FACScan, Jurkat cells
[2] = target: T2, rhesus CD11a (rhesus); experiment: binding to rhesus peripheral blood lymphocytes

Binder | Var.EC50/HuIgG1 EC50 [1] | Var.EC50/HuIgG1 EC50 [2] | further results
L1 variant IgG1 (antibody, V domains shown) VH: EVQLVESGGGLVQPGGSLRLSCAASGYSFTGHWMNWVRQAPGKGLEWVGMIHPSDSETRYNQKFKDRFTISVDKSKNTLYLQMNSLRAEDTAVYYCARGIYFYGTTYFDYWGQGTLVTVSS VL: DIQMTQSPSSLSASVGDRVTITCRASAAIAAYLAWYQQKPGKAPKLLIYSGSTLQSGVPSRFSGSGSGTDFTLTISSLQPEDFATYYCQQHNEYPLTFGQGTKVEIKR | 1.3 | 1 | –
GluL93Ala variant IgG1 (antibody, V domains shown) VH: EVQLVESGGGLVQPGGSLRLSCAASGYSFTGHWMNWVRQAPGKGLEWVGMIHPSDSETRYNQKFKDRFTISVDKSKNTLYLQMNSLRAEDTAVYYCARGIYFYGTTYFDYWGQGTLVTVSS VL: DIQMTQSPSSLSASVGDRVTITCRASKTISKYLAWYQQKPGKAPKLLIYSGSTLQSGVPSRFSGSGSGTDFTLTISSLQPEDFATYYCQQHNAYPLTFGQGTKVEIKR | 1.7 | 2.9 | –
H2C14 variant IgG1 (antibody, V domains shown) VH: EVQLVESGGGLVQPGGSLRLSCAASGYSFTGHWMNWVRQAPGKGLEWVGMIAPASSATRYNQKFKDRFTISVDKSKNTLYLQMNSLRAEDTAVYYCARGIYFYGTTYFDYWGQGTLVTVSS VL: DIQMTQSPSSLSASVGDRVTITCRASKTISKYLAWYQQKPGKAPKLLIYSGSTLQSGVPSRFSGSGSGTDFTLTISSLQPEDFATYYCQQHNEYPLTFGQGTKVEIK | – | 0.021 | –
AsnL92Ala variant IgG1 (antibody, V domains shown) VH: EVQLVESGGGLVQPGGSLRLSCAASGYSFTGHWMNWVRQAPGKGLEWVGMIHPSDSETRYNQKFKDRFTISVDKSKNTLYLQMNSLRAEDTAVYYCARGIYFYGTTYFDYWGQGTLVTVSS VL: DIQMTQSPSSLSASVGDRVTITCRASKTISKYLAWYQQKPGKAPKLLIYSGSTLQSGVPSRFSGSGSGTDFTLTISSLQPEDFATYYCQQHAEYPLTFGQGTKVEIKR | 3.3 | 3.3 | –
ThrL53Ala variant IgG1 (antibody, V domains shown) VH: EVQLVESGGGLVQPGGSLRLSCAASGYSFTGHWMNWVRQAPGKGLEWVGMIHPSDSETRYNQKFKDRFTISVDKSKNTLYLQMNSLRAEDTAVYYCARGIYFYGTTYFDYWGQGTLVTVSS VL: DIQMTQSPSSLSASVGDRVTITCRASKTISKYLAWYQQKPGKAPKLLIYSGSALQSGVPSRFSGSGSGTDFTLTISSLQPEDFATYYCQQHNEYPLTFGQGTKVEIKR | 0.9 | 0.7 | –
ThrH100bAla variant IgG1 (antibody, V domains shown) VH: EVQLVESGGGLVQPGGSLRLSCAASGYSFTGHWMNWVRQAPGKGLEWVGMIHPSDSETRYNQKFKDRFTISVDKSKNTLYLQMNSLRAEDTAVYYCARGIYFYGTAYFDYWGQGTLVTVSS VL: DIQMTQSPSSLSASVGDRVTITCRASKTISKYLAWYQQKPGKAPKLLIYSGSTLQSGVPSRFSGSGSGTDFTLTISSLQPEDFATYYCQQHNEYPLTFGQGTKVEIK | 1.4 | – | –
H2C6 variant IgG1 (antibody, V domains shown) VH: EVQLVESGGGLVQPGGSLRLSCAASGYSFTGHWMNWVRQAPGKGLEWVGMIAPANSQTRYNQKFKDRFTISVDKSKNTLYLQMNSLRAEDTAVYYCARGIYFYGTTYFDYWGQGTLVTVSS VL: DIQMTQSPSSLSASVGDRVTITCRASKTISKYLAWYQQKPGKAPKLLIYSGSTLQSGVPSRFSGSGSGTDFTLTISSLQPEDFATYYCQQHNEYPLTFGQGTKVEIK | – | 0.21 | –
SerL52Ala variant IgG1 (antibody, V domains shown) VH: EVQLVESGGGLVQPGGSLRLSCAASGYSFTGHWMNWVRQAPGKGLEWVGMIHPSDSETRYNQKFKDRFTISVDKSKNTLYLQMNSLRAEDTAVYYCARGIYFYGTTYFDYWGQGTLVTVSS VL: DIQMTQSPSSLSASVGDRVTITCRASKTISKYLAWYQQKPGKAPKLLIYSGATLQSGVPSRFSGSGSGTDFTLTISSLQPEDFATYYCQQHNEYPLTFGQGTKVEIKR | 1.1 | 13.3 | –
SerL50Ala variant IgG1 (antibody, V domains shown) VH: EVQLVESGGGLVQPGGSLRLSCAASGYSFTGHWMNWVRQAPGKGLEWVGMIHPSDSETRYNQKFKDRFTISVDKSKNTLYLQMNSLRAEDTAVYYCARGIYFYGTTYFDYWGQGTLVTVSS VL: DIQMTQSPSSLSASVGDRVTITCRASKTISKYLAWYQQKPGKAPKLLIYAGSTLQSGVPSRFSGSGSGTDFTLTISSLQPEDFATYYCQQHNEYPLTFGQGTKVEIKR | 1.2 | 2.7 | –
AspH54Lys variant IgG1 (antibody, V domains shown) VH: EVQLVESGGGLVQPGGSLRLSCAASGYSFTGHWMNWVRQAPGKGLEWVGMIHPSKSETRYNQKFKDRFTISVDKSKNTLYLQMNSLRAEDTAVYYCARGIYFYGTTYFDYWGQGTLVTVSS VL: DIQMTQSPSSLSASVGDRVTITCRASKTISKYLAWYQQKPGKAPKLLIYSGSTLQSGVPSRFSGSGSGTDFTLTISSLQPEDFATYYCQQHNEYPLTFGQGTKVEIK | – | – | Variant EC50/HulgG1 EC50 [2]: 3.8
H2C4 variant IgG1 (antibody, V domains shown) VH: EVQLVESGGGLVQPGGSLRLSCAASGYSFTGHWMNWVRQAPGKGLEWVGMIAPANSATRYNQKFKDRFTISVDKSKNTLYLQMNSLRAEDTAVYYCARGIYFYGTTYFDYWGQGTLVTVSS VL: DIQMTQSPSSLSASVGDRVTITCRASKTISKYLAWYQQKPGKAPKLLIYSGSTLQSGVPSRFSGSGSGTDFTLTISSLQPEDFATYYCQQHNEYPLTFGQGTKVEIK | – | 0.38 | –
TyrH100cAla variant IgG1 (antibody, V domains shown) VH: EVQLVESGGGLVQPGGSLRLSCAASGYSFTGHWMNWVRQAPGKGLEWVGMIHPSDSETRYNQKFKDRFTISVDKSKNTLYLQMNSLRAEDTAVYYCARGIYFYGTTAFDYWGQGTLVTVSS VL: DIQMTQSPSSLSASVGDRVTITCRASKTISKYLAWYQQKPGKAPKLLIYSGSTLQSGVPSRFSGSGSGTDFTLTISSLQPEDFATYYCQQHNEYPLTFGQGTKVEIK | 7.6 | – | –
AspH54Ser variant IgG1 (antibody, V domains shown) VH: EVQLVESGGGLVQPGGSLRLSCAASGYSFTGHWMNWVRQAPGKGLEWVGMIHPSSSETRYNQKFKDRFTISVDKSKNTLYLQMNSLRAEDTAVYYCARGIYFYGTTYFDYWGQGTLVTVSS VL: DIQMTQSPSSLSASVGDRVTITCRASKTISKYLAWYQQKPGKAPKLLIYSGSTLQSGVPSRFSGSGSGTDFTLTISSLQPEDFATYYCQQHNEYPLTFGQGTKVEIK | – | – | Variant EC50/HulgG1 EC50 [2]: 0.9
AspH54Ala variant IgG1 (antibody, V domains shown) VH: EVQLVESGGGLVQPGGSLRLSCAASGYSFTGHWMNWVRQAPGKGLEWVGMIHPSASETRYNQKFKDRFTISVDKSKNTLYLQMNSLRAEDTAVYYCARGIYFYGTTYFDYWGQGTLVTVSS VL: DIQMTQSPSSLSASVGDRVTITCRASKTISKYLAWYQQKPGKAPKLLIYSGSTLQSGVPSRFSGSGSGTDFTLTISSLQPEDFATYYCQQHNEYPLTFGQGTKVEIK | 147 | 0.3 | Variant EC50/HulgG1 EC50 [1]: 147; Variant EC50/HulgG1 EC50 [2]: 0.3; fold improvement in binding over HuIgG1 [2]: 3 fold
